Measured values taken from publication PMC8643467, “Appearance of peanut agglutinin in the blood circulation after peanut ingestion promotes endothelial secretion of metastasis-promoting cytokines” (Carcinogenesis, 2021).

Biological target: MCAM (CD146), melanoma cell adhesion molecule (human (endogenous in HUVECs), UniProt P43121 24-646)
Experiment: cell-based or functional assay

B1: Peanut agglutinin (PNA), agarose-conjugated (natural protein, Arachis hypogaea, UniProt P02872 24-273, looked up)
chain: AETVSFNFNSFSEGNPAINFQGDVTVLSNGNIQLTNLNKVNSVGRVLYAMPVRIWSSATGNVASFLTSFSFEMKDIKDYDPADGIIFFIAPEDTQIPAGSIGGGTLGVSDTKGAGHFVGVEFDTYSNSEYNDPPTDHVGIDVNSVDSVKTVPWNSVSGAVVKVTVIYDSSTKTLSVAVTNDNGDITTIAQVVDLKAKLPERVKFGFSASGSLGGRQIHLIRSWSFTSTLITTTRRSIDNNEKKIMNMASA
For B1, the “IL-6 secretion from HUVECs by ELISA, dose series of PNA, highest after 24 h with 8 μg/ml PNA” value was 3 fold and the “MCP-1 secretion from HUVECs by ELISA, dose series of PNA, highest after 24 h with 8 μg/ml PNA” value was 13 fold.
